These results are taken from paper PMC6796912.

Test [1] addresses Saccharomyces cerevisiae Tel1 (TEL1-FLAG), endogenously purified (S. cerevisiae) (UniProt P38110). In words: cryo-EM structure; Tel1-FLAG purified from S. cerevisiae, 20–50 μg/mL in 20 mM HEPES pH 8.0, 40 mM KOAc, 5 mM MgCl2, 0.1% trehalose, 2 mM DTT, 0.01% NP-40; symmetric dimer (C2, 4.1 Å) and asymmetric dimer (4.3 Å) classes.
Test [2] deals with GST-Xrs2 (full-length S. cerevisiae Xrs2) (S. cerevisiae) (UniProt P33301). The test is described as follows: pull-down; glutathione sepharose saturated with full-length GST-Xrs2 added to lysates of yeast expressing wild-type or mutant Tel1; 2 h at 4 °C, washed 3 times with lysis buffer; immunoblot with anti-PAP antibody. A general note: In western blotting, separated proteins are transferred to a membrane and probed.
Sequence of GST-Xrs2 (full-length S. cerevisiae Xrs2) (S. cerevisiae) (P33301 whole entry): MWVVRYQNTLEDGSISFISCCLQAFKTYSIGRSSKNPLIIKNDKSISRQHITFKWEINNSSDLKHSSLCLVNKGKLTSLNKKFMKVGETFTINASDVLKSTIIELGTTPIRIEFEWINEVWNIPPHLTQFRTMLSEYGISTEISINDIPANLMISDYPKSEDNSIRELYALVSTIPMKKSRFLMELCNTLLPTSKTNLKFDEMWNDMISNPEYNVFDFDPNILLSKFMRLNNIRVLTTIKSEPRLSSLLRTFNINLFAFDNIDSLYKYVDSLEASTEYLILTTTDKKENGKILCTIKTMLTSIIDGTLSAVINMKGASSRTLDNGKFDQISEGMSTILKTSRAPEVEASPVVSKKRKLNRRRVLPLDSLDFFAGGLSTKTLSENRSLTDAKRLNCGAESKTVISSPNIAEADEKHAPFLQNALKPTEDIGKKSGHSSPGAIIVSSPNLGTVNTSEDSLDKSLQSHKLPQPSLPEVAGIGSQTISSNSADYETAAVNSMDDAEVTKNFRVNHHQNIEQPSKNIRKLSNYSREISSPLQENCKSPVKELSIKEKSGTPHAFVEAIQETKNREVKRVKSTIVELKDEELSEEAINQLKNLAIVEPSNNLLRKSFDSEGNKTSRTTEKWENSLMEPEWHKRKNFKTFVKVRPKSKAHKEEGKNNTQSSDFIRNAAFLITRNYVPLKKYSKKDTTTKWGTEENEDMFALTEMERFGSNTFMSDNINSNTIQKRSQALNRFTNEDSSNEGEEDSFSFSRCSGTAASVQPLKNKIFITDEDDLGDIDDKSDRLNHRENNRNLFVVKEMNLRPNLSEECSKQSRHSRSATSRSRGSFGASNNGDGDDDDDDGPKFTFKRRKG

The stoichiometry N is the number of molecules, sites or subunits per partner or assembly. As to “Saccharomyces cerevisiae Tel1 (TEL1-FLAG), endogenously purified, P38110 1-2787”, the stoichiometry N in test [1] came out at 2. Substance Tel1 K2751E (TAP-tagged), P38110 1-2787 returned a decrease of Xrs2 binding against wild-type Tel1 in test [2] of 100%.
